Data published in article PMC7666158.
Substitutions are numbered along the chain they refer to. Numbers in names are those of the source. One block for each binder: values may come before it.

How the values were obtained:
[1] = biological target: JNK1-dc20 (JNK1 with the C-terminal 20 residues truncated) (human) (UniProt P45983); experiment: ITC; as a5, with 2 mM EDTA
[2] = biological target: JNK1-dc20 (JNK1 with the C-terminal 20 residues truncated) (human) (UniProt P45983); experiment: fluorescence polarisation; competitive: 50 nM CF-evJIP with JNK1 at ~60–80% complex, titrated with unlabeled competitor; 20 mM Tris pH 8.0, 100 mM NaCl, 0.05% Brij35P, 2 mM TCEP; 384-well plates
[3] = biological target: JNK1-dc20 (JNK1 where the C-terminal 20 residues are truncated) (human) (UniProt P45983); experiment: fluorescence polarisation; competitive titration: JNK1 with CF-evJIP (50 nM; JNK1 at ~60-80% complex formation) titrated with unlabeled MBP-ATF2(19-100) constructs; data fit to a competition binding equation; 20 mM Tris pH 8.0, 100 mM NaCl, 0.05% Brij35P, 2 mM TCEP
[4] = biological target: pp-JNK1 (activated, phosphorylated JNK1) (human) (UniProt P45983); experiment: in vitro kinase assay fitted with a kinetic model; 5 nM pp-JNK or pp-p38, MBP-ATF2(19-100) substrate 0.5-100 uM, 5 mM ATP, kinase buffer; p-T71 and p-T69/T71 by quantitative dot-blots; binding rates (kon, koff) and reaction rates fitted simultaneously with the BioNetGen model (PyBioNetFit)

Binder: MSDDKPFLCTAPGCGQRFTNEDHLAVHKHKHEMTLKFGPA (domain or fragment) [ATF2(19–58)-His6 (MBP removed, for ITC)]
fold decrease in binding with EDTA against no EDTA [1]: 10 fold

Binder: MSDDKPFLCTAPGCGQRFTNEDHLAVHKHKHEMTLKFGPA (domain or fragment) [ATF2(19–58) as used in the competitive fluorescence polarisation assay]
Kd [2]: 5 µM

B2: MBP-ATF2-(19-100)-V44E (domain or fragment)
chain: MSDDKPFLCTAPGCGQRFTNEDHLAEHKHKHEMTLKFGPARNDSVIVADQTPTPTRFLKNCEEVGLFNELASPFENEFKKAS
Kd [3]: 56.2 µM

B3: MBP-ATF2-(19-100)-V44A (domain or fragment)
chain: B2 chain with E26A
Kd [3]: 15.5 µM

B6: MBP-ATF2-(19-100)-H47E (domain or fragment)
chain: B2 chain with E26V, H29E
Kd [3]: 39.3 µM

B8: MBP-ATF2(19–100) K48E (domain or fragment)
chain: B2 chain with E26V, K30E
fold decrease in binding against the wild type [2]: 10 fold

Further lines, results first:

Kd [3]: 3.5 µM | Kd [4]: 3.5 µM | koff [4]: 19.6 s⁻¹ | kon [4]: 5.6e+06 M⁻¹ s⁻¹
B1: MBP-ATF2(19-100)-WT (domain or fragment)
chain: B2 chain with E26V

Kd [3]: 0.26 µM
B4: MBP-ATF2-(19-100)-H47R (domain or fragment)
chain: B2 chain with E26V, H29R

Kd [3]: 0.87 µM
B5: MBP-ATF2-(19-100)-Q34R (domain or fragment)
chain: B2 chain with Q16R, E26V

Kd [3]: 0.05 µM
B7: MBP-ATF2-(19-100)-Q34R/H47R (domain or fragment)
chain: B2 chain with Q16R, E26V, H29R
